According to patent US20170165365A1 (SYMPHOGEN A S, published 2017):
Numbering of substitutions follows the chain as printed.

T1: murine HER4 antigen (mouse, UniProt Q61527 26-652, limits assumed)
T1 construct: In-house antigen coated for ELISA; also called mouse HER4
T1 sequence (looked up): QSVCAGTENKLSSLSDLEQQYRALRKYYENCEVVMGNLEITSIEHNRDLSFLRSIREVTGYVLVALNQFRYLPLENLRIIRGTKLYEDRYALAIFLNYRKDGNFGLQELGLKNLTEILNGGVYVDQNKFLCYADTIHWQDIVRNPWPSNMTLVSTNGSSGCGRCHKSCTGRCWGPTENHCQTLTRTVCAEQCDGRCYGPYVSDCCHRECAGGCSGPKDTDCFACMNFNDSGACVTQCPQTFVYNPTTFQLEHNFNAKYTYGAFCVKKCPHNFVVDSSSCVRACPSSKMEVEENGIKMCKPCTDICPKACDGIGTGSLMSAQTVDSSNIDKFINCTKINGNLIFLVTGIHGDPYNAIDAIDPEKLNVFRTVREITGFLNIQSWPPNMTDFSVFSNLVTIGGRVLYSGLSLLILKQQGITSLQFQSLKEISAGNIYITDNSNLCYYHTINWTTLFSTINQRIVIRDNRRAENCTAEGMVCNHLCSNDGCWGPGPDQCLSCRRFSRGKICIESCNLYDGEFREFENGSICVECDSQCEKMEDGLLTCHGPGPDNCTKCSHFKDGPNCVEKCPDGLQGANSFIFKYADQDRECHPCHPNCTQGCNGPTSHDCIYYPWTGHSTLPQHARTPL

T2: human HER4 antigen (human, UniProt Q15303 26-649, limits assumed)
T2 construct: Antigen coated for ELISA
T2 sequence (looked up): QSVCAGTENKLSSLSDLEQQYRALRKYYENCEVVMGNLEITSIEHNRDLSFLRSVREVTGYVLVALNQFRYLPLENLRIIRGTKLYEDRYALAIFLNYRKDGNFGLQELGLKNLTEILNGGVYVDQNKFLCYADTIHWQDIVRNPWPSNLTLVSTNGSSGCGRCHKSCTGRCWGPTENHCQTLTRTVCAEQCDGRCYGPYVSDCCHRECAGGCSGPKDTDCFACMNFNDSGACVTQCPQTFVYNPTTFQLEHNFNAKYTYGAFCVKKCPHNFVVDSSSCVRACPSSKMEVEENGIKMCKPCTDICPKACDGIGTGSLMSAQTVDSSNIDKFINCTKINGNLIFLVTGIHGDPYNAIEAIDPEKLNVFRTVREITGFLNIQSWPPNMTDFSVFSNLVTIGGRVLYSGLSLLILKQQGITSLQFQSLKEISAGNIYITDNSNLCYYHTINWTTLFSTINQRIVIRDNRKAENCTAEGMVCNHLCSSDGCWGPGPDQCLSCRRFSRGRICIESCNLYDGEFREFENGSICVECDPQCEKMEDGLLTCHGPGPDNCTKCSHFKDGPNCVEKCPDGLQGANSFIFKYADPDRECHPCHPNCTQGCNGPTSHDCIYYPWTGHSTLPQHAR

B1: humanized anti-EGFR antibody 10460 (antibody, V domains shown)
VH: EVQLVESGGGLVQPGGSLRLSCAASGFAFSYSDMSWVRQAPGKRLEWVSYMSSAGDVTFYSDTVKGRFTISRDNAKNSLYLQVNSLRAEDTAVYYCVRHRDVAIDYWGQGTTVTVSS
VL: DVVMTQSPLSLPVTLGQPASISCRSSQSLVHSNGNTYLHWYQQRPGQSPRLLIYKVSNRFSGVPDRFSGSGSGTDFTLKISRVEAEDVGVYFCSQSTHVPTFGGGTKLEIK
B2: chimeric anti-HER3 antibody 5082 (antibody, V domains shown)
VH: EVQLKESGPGLVKPSQSLSLTCSVTGYSITSAYYWNWIRQFPGNKVEWMGYIGYDGRNTYNPSLKNRISITRDTSKNQFFLKLNSLTTEDTATYYCSREGDYGYSDYWGQGTTLTVS
VL: DIVMTQATSSLSASLGDRVTVSCRASQDINNYLNWYQQKPDGTVKLLIYYTSRLQSGVPSRFSGSGSGIDYSLTISNLEQEDFVTYFCQQSETLPWTFGGGTKLELKR
notes: light chain entry is full length
B3: chimeric anti-HER3 antibody 5038 (antibody, V domains shown)
VH: EVKLVESGPGLVKPSQSLSLTCSVTGYSITSGFYWTWIRQFPGNKLEWMGFISYDGSNNYNPSLKNRISITRDTSKNQFFLKLNSVTTEDTATYYCARGGGYYGNLFDYWGQGTTLTVS
VL: DIVMTQTTSSLSASLGDRVTISCRPSQDISNYVNWFQQKPGGTVKLLIFHTSRLHSGVPSRFSGSGSGTDYSLTISTLEQEDIAIYFCQQGITLPWTFGGGTKLEIKR
notes: as for B2
B4: humanized anti-HER3 antibody 11006 (antibody, V domains shown)
VH: QVQLQESGPGLVKPSQTLSLTCTVSGYSITSAYYWNWIRQHPGKGVEWMGYIGYSGRNTYNPSLKNRVTISRDTSKNQFSLKLSSVTAADTAVYYCSREGDYGYSDYWGQGTLVTVSS
VL: DIQMTQSPSSLSASVGDRVTVTCRASQDTNNYLNWYQQKPGKAVKLLIYYTSRLQSGVPSRFSGSGSGTDFTLTISSLQPEDFATYFCQQSETLPWTFGQGTKVEIK
B5: humanized anti-HER3 antibody 10738 (antibody, V domains shown)
VH: QVQLQESGPGLVKPSQTLSLTCTVSGYSITSGFYWTWIRQHPGKGLEWMGFISYSGSNNYNPSLKNRITISVDTSKNQFSLKLSSVTAADTAVYYCARGGGYYGNLFDYWGQGTLVTVSS
VL: DIQMTQSPSSLSASVGDRVTITCRPSQDISNYVNWFQQKPGKAVKLLIFHTSRLHSGVPSRFSGSGSGTDFTFTISSLQPEDIAIYYCQQGITLPWTFGQGTKVEIK
B6: humanized anti-HER3 antibody 10810 (antibody, V domains shown)
VH: B5 VH with K44N, M49I, I68V, V93T
VL: B5 VL with V44P, F73L, I85T

target: T1, murine HER4 antigen; assay: ELISA, coated mu HER4
Experimental: (§1) Antibody-antigen binding was measured by ELISA with coated antigens. Human antigens were obtained from Sino Biologicals. All other antigens were produced in-house by transient expression in CHO or HEK293 cells. Chimeric and humanized antibodies, as well as an isotype control antibody, were incubated with the coated antigens at different concentrations. After wash, bound antibodies were detected by HRP-(horse radish peroxidase)-conjugated secondary antibodies.

| binding result | Binder |
| --- | --- |
| no binding (tested: 40 nM) | B1 |
| no binding (tested: 40 nM) | B2 |
| no binding (tested: 40 nM) | B3 |
| no binding (tested: 40 nM) | B4 |
| no binding (tested: 40 nM) | B5 |
| no binding (tested: 40 nM) | B6 |

target: T3, cynomolgus EGFR antigen (cynomolgus monkey, UniProt A0A2K5WK39 25-645); assay: ELISA, coated cy EGFR
T3 construct: In-house antigen; also called cynomolgus antigen
Experimental: as §1

| binding result | Binder |
| --- | --- |
| no binding (tested: 40 nM) | B2 |
| no binding (tested: 40 nM) | B3 |
| no binding (tested: 40 nM) | B4 |
| no binding (tested: 40 nM) | B5 |
| no binding (tested: 40 nM) | B6 |

target: T4, cynomolgus HER3 antigen (cynomolgus monkey, UniProt G7PIG5 20-643); assay: ELISA, coated cy HER3
T4 construct: In-house antigen; also called cynomolgus antigen
T4 sequence (G7PIG5 entry or part of it): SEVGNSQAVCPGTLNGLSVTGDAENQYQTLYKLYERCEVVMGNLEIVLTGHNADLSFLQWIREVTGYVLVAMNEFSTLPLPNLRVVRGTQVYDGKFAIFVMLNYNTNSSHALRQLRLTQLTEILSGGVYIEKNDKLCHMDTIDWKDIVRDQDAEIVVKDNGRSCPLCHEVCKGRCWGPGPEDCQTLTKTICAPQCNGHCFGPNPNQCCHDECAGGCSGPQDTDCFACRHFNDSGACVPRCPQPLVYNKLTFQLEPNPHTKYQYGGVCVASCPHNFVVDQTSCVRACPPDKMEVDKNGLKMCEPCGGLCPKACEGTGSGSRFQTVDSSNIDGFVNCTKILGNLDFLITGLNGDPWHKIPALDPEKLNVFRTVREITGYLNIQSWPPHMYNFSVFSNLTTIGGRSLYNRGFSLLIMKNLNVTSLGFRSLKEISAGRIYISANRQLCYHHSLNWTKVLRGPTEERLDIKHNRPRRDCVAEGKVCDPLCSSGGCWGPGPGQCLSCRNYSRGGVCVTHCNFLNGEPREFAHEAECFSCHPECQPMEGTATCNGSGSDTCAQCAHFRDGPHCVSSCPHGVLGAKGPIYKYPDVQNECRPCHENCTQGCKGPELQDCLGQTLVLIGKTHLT
Experimental: as §1

| binding result | Binder |
| --- | --- |
| no binding (tested: 40 nM) | B1 |

target: T5, human EGFR antigen (Sino Biologicals) (human, UniProt P00533 25-645); assay: ELISA, coated hu EGFR
T5 construct: Bought soluble antigen; also called human antigen
Experimental: as §1

| binding result | Binder |
| --- | --- |
| no binding (tested: 40 nM) | B2 |
| no binding (tested: 40 nM) | B3 |
| no binding (tested: 40 nM) | B4 |
| no binding (tested: 40 nM) | B5 |
| no binding (tested: 40 nM) | B6 |

target: T4, cynomolgus HER3 antigen; assay: SPR (ProteOn XPR36), IgG captured by anti-human Fc, soluble monovalent antigen, 1:1 fit
Experimental: (§2) Kinetic binding analysis of the purified humanized variants was performed on a ProteOn™ XPR36 biosensor (BioRad, USA) employing an IgG capture assay as described by Canziani et al. (Anal. Biochem. (2004) 325:301-307) that allows for measurement of antibody affinities of whole IgG molecules against soluble antigen under monovalent conditions. Briefly, approximately 5000 resonance units (RU) of a monoclonal mouse anti-human IgG Fc antibody (GE Healthcare, Denmark) was conjugated to a GLC chip surface (BioRad, USA) according to the manufacturer's instructions, followed by capture of individual antibodies of the invention or a negative control on the anti-Fc sensor surface. […] Next, 250 μl monovalent antigen (Sino Biologicals) was injected at a flow rate of 50 μl/min in serial threefold dilutions from 100 nM stock to generate response curves. The chip surface was regenerated between cycles by stripping the captured antibody/antigen complexes off the surface with a 10-second injection of 3 M MgCl₂ (GE Healthcare, Denmark) repeated three times. Finally, binding responses were fitted to a Langmuir 1:1 binding model for calculation of the on-rate (kon or ka), off-rate (koff or kd) and affinity (KD) constants using double referencing.

| Kd [nM] | koff [s⁻¹] | kon [M⁻¹ s⁻¹] | Binder |
| --- | --- | --- | --- |
| 0.098 | 0.00016 | 1.7e+06 | B2 |
| 0.89 | 0.00041 | 460000 | B3 |
| 0.059 | 8.7e-05 | 1.5e+06 | B4 |
| 0.54 | – | – | B5 |
| 0.71 | 0.00034 | 470000 | B6 |

target: T6, human HER3 antigen (Sino Biologicals) (human, UniProt P21860 20-643); assay: as above
T6 construct: Bought soluble antigen; also called human antigen
Experimental: as §2

| Kd [nM] | koff [s⁻¹] | kon [M⁻¹ s⁻¹] | Binder |
| --- | --- | --- | --- |
| 0.08 | 7.3e-05 | 910000 | B2 |
| 1.6 | 0.00048 | 300000 | B3 |
| – | < 2e-06 | 740000 | B4 |
| 1.1 | 0.0002 | 190000 | B6 |

target: T6, human HER3 antigen (Sino Biologicals); assay: ELISA, coated hu HER3
Experimental: as §1

| binding result | Binder |
| --- | --- |
| no binding (tested: 40 nM) | B1 |

target: T7, mouse EGFR antigen (mouse, UniProt Q01279 25-647, limits assumed); assay: ELISA, coated mu EGFR
T7 construct: In-house antigen coated for ELISA; also called mouse antigen; murine EGFR
Experimental: as §1

| binding result | Binder |
| --- | --- |
| no binding (tested: 40 nM) | B1 |
| no binding (tested: 40 nM) | B2 |
| no binding (tested: 40 nM) | B3 |
| no binding (tested: 40 nM) | B4 |
| no binding (tested: 40 nM) | B5 |
| no binding (tested: 40 nM) | B6 |

target: T8, mouse HER3 antigen (mouse, UniProt Q61526 20-641, limits assumed); assay: ELISA, coated mu HER3
T8 construct: In-house antigen coated for ELISA; also called mouse antigen; murine HER3
T8 sequence (Q61526 20-641 limits assumed): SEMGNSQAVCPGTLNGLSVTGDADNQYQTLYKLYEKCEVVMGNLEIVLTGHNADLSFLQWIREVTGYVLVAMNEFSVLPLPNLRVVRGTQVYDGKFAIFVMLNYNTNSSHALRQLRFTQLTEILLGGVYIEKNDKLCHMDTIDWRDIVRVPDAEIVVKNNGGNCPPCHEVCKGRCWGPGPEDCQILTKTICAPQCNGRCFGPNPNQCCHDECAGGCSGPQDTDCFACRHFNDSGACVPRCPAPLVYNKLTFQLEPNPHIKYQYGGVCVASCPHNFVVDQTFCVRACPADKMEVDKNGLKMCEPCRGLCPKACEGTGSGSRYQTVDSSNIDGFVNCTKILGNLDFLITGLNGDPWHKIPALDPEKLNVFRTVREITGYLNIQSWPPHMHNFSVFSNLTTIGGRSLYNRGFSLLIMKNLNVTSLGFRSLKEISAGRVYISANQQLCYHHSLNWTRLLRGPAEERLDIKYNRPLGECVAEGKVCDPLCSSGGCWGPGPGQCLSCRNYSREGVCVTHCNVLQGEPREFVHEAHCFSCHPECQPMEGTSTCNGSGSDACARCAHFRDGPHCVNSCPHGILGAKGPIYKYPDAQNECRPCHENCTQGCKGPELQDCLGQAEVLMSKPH
Experimental: as §1

| binding result | Binder |
| --- | --- |
| no binding (tested: 40 nM) | B1 |
| no binding (tested: 40 nM) | B2 |
| no binding (tested: 40 nM) | B3 |
| no binding (tested: 40 nM) | B4 |
| no binding (tested: 40 nM) | B5 |
| no binding (tested: 40 nM) | B6 |

target: T2, human HER4 antigen; assay: ELISA, coated hu HER4
Experimental: as §1

| binding result | Binder |
| --- | --- |
| no binding (tested: 40 nM) | B1 |
| no binding (tested: 40 nM) | B2 |
| no binding (tested: 40 nM) | B3 |
| no binding (tested: 40 nM) | B4 |
| no binding (tested: 40 nM) | B5 |
| no binding (tested: 40 nM) | B6 |

target: T9, mouse HER2 antigen (mouse, UniProt P70424 23-653, limits assumed); assay: ELISA, coated mu HER2
T9 construct: In-house antigen coated for ELISA; also called mouse antigen; murine HER2
T9 sequence (P70424 23-653 limits assumed): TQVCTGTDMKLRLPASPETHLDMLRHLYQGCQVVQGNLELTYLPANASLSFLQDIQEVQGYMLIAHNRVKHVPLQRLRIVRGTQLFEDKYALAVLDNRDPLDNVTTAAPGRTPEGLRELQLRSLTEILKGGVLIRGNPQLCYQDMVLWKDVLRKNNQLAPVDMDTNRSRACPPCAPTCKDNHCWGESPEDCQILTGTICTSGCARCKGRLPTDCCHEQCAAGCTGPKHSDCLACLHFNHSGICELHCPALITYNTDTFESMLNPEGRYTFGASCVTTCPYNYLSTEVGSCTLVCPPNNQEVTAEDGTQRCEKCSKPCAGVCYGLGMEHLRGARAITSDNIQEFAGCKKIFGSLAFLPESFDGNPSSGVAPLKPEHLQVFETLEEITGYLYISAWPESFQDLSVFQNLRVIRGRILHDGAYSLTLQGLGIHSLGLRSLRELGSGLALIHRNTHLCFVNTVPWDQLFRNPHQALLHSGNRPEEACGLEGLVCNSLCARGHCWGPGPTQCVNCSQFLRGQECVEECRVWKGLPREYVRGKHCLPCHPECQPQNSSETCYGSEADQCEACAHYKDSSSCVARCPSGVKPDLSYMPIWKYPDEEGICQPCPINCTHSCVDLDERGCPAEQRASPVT
Experimental: as §1

| binding result | Binder |
| --- | --- |
| no binding (tested: 40 nM) | B1 |
| no binding (tested: 40 nM) | B2 |
| no binding (tested: 40 nM) | B3 |
| no binding (tested: 40 nM) | B4 |
| no binding (tested: 40 nM) | B5 |
| no binding (tested: 40 nM) | B6 |

target: T10, human HER2 antigen (Sino Biologicals) (human, UniProt P04626 23-652); assay: ELISA, coated hu HER2
T10 construct: Bought soluble antigen; also called human antigen
Experimental: as §1

| binding result | Binder |
| --- | --- |
| no binding (tested: 40 nM) | B1 |
| no binding (tested: 40 nM) | B2 |
| no binding (tested: 40 nM) | B3 |
| no binding (tested: 40 nM) | B4 |
| no binding (tested: 40 nM) | B5 |
| no binding (tested: 40 nM) | B6 |
